Measured values taken from patent US20060211041A1 (Astellas, published 2006).
Where a chain is given by its changes, count along the chain named. Each block holds one binder with its values, some of them ahead of it.

Key:
[1] = biological target: T1, GST protein (protein of GST moiety alone, from pGEX-3X) (UniProt P08515 1-218 = GST); experiment: GST pull down of 35S-labelled in vitro translated human AKBP2, SDS-PAGE and autoradiography
T1 construct: Control of the pull down
Method: Using the GST fusion Akt2 protein (to be referred to as GST-Akt2 hereinafter) prepared in the aforementioned (2), the presence or absence of direct interaction between human AKBP2 protein and Akt2 protein was verified by the GST-pull down method (H. Matsushime et al., Jikken Kogaku, Vol. 113, No. 6, p. 528, 1994). Firstly, using 0.5 μg of the pcDNA-human AKBP2 prepared in the aforementioned Example 5 as the template, and using 40 μl of a TNT kit (TNTR Quick Coupled Transcription/Translation System; Promega) and 1.3 MBq of a radioisotope (redivue Pro-mix L-[³⁵S]; Amersham), radioisotope-labeled human AKBP2 protein was prepared by in vitro transcription and translation in accordance with the attached protocols. A 15 μl portion of this human AKBP2 protein preparation solution was mixed with 1 μg of the GST protein or GST-Akt2 purified on glutathione beads in the aforementioned (2) and shaken at 4° C. for 1 hour after adding 0.3 ml of Buffer A (50 mM Tris-HCl (pH 7.5), 10% glycerol, 120 mM NaCl, 1 mM EDTA, 0.1 mM EGTA, 0.5 mM PMSF, 0.5% NP-40). […] After repeating this operation 4 times, proteins in the precipitate were separated by SDS polyacrylamide gel electrophoresis in accordance with a conventionally known method, and the human AKBP2 protein was detected by autoradiography. As a result, a band which is not detected when the GST protein is mixed was detected when GST-Akt2 was mixed.

[2] = biological target: T2, mouse AKBP2 over-expressed in NIH3T3 L1 fat cells from adenovirus vector AKBP2/pAdTrack-CMV
T2 chain: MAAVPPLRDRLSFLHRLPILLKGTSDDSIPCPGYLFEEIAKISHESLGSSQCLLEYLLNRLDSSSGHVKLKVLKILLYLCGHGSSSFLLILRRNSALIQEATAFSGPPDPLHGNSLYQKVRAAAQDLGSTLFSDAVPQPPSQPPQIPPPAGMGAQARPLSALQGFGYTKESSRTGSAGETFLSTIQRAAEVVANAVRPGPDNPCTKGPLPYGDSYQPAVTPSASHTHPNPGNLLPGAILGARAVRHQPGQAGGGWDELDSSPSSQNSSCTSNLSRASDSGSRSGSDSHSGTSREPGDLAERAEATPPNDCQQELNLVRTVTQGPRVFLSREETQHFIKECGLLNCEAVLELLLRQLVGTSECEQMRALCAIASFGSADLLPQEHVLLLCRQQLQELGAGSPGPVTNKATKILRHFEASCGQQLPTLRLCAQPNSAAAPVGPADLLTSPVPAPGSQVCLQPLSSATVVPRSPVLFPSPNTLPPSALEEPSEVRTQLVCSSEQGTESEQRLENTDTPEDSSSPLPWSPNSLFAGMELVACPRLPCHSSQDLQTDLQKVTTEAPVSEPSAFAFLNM

[3] = biological target: T3, mouse AKBP2 (Akt2 Binding Protein 2) fused to the GAL4 transcriptional activation domain (pACT2 library clone … (mouse, UniProt Q3U3N6 1-573)); experiment: yeast two hybrid, HIS3 (3AT resistance) and lacZ (β-galactosidase) reporters
T3 construct: Prey of the yeast two hybrid screen; also called mouse AKBP2 protein; not shown: limits and junction r
T3 sequence: T2 chain
Method: The aforementioned yeast strain MaV203 for two hybrid transformed by pDB-Akt2 was suspended in 400 ml of YPD liquid medium (DIFCO), cultured at 30° C. for about 6 hours until absorbance at a wave length of 590 nanometer became from 0.1 to 0.4, and then made into competent cells by the lithium acetate method, and the final amount was suspended in 1.0 ml of 0.1 M lithium-tris buffer. The cells were transformed with 20 μg of the mouse fat tissue derived cDNA library prepared in the aforementioned (3), and the cells were selected by culturing on a solid synthetic minimal medium (DISCO, 20% agarose) from which tryptophan and leucine as respective selection markers of pDB-Akt2 and the library had been deleted, thereby obtaining a transformant into which both plasmids were introduced. At the same time, in order to select a cell having an activated reporter gene HIS3 which is expressed when a fusion protein of the GAL4 DNA binding domain artificially expressed in the two hybrid system is linked to a fusion protein of the GAL4 transcriptional activation domain, the transformed cells were cultured at 30° C. for 5 days on the solid minimal medium (20% agarose) from which histidine was removed together with tryptophan and leucine and to which 20 mM of 3AT (3-amino-1,2,4-triazole; Sigma) as an inhibitor of the enzyme encoded by HIS3 was added. […]

T1 sequence (P08515 whole entry): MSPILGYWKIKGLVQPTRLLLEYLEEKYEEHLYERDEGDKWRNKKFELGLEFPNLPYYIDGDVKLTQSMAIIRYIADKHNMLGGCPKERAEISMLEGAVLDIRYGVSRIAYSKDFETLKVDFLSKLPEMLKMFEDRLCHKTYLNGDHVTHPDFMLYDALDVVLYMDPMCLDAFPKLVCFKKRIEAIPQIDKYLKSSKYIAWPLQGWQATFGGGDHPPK

B1: human AKBP2-V5-His 6 fusion protein (in vitro transcribed and translated from pcDNA-human AKBP2, 35S-labelled) (other, not shown: small tags and cut ends)
chain: MAAAPPLRDRLSFLHRLPILLKGTSDDDVPCPGYLFEEIAKISHESPGSSQCLLEYLLSRLHSSSGHGKLKVLKILLYLCSHGSSFFLLILKRNSAFIQEAAAFAGPPDPLHGNSLYQKVRAAAQDLGSTLFSDTVLPLAPSQPLGTPPATGMGSQARPHSTLQGFGYSKEHGRTGSAGEAFLSTIQKAAEVVASAMRPGPESPSTRRLLPRGDTYQPAMMPSASHGPPTLGNLLPGAIPGPRAVRHQPGQAGGGWDELDSGPSSQNSSQNSDLSRVSDSGSHSGSDSHSGASREPGDLAERVEVVALSDCQQELSLVRTVTRGPRAFLSREEAQHFIKACGLLNCEAVLQLLTCHLRGTSECTQLRALCAIASLGSSDLLPQEHILLRTRPWLQELSMGSPGPVTNKATKILRHFEASCGQLSPARGTSAEPGPTAALPGPSDLLTDAVPLPGSQVFLQPLSSTPVSSRSPAPSSGMPSSPVPTPPPDASPIPAPGDPSEAEARLAESRRWRPERIPGGTDSPKRGPSSCAWSRDSLFAGMELVACPRLVGAGAAAGESCPDAPRAPQTSSQRTAAKEPPGSEPSAFAFLNA
modifications: radioisotope-labelled (redivue Pro-mix L-[35S])
notes: also called human AKBP2 protein
binding result [1]: no binding (tested: 1 µg of the GST protein)

B2: Akt2 of NIH3T3 L1 fat cells (endogenous, immunoprecipitated with anti-Akt2 antibody) (protein)
chain: MNEVSVIKEGWLHKRGEYIKTWRPRYFLLKSDGSFIGYKERPEAPDQTLPPLNNFSVAECQLMKTERPRPNTFVIRCLQWTTVIERTFHVDSPDEREEWMRAIQMVANSLKQRGPGEDAMDYKCGSPSDSSTSEMMEVAVNKARAKVTMNDFDYLKLLGKGTFGKVILVREKATGRYYAMKILRKEVIIAKDEVAHTVTESRVLQNTRHPFLTALKYAFQTHDRLCFVMEYANGGELFFHLSRERVFTEDRARFYGAEIVSALEYLHSRDVVYRDIKLENLMLDKDGHIKITDFGLCKEGISDGATMKTFCGTPEYLAPEVLEDNDYGRAVDWWGLGVVMYEMMCGRLPFYNQDHERLFELILMEEIRFPRTLGPEAKSLLAGLLKKDPKQRLGGGPSDAKEVMEHRFFLSINWQDVVQKKLLPPFKPQVTSEVDTRYFDDEFTAQSITITPPDRYDSLDPLELDQRTHFPQFSYSASIRE
phosphorylation of the 473rd serine of immunoprecipitated Akt2, western blotting with anti-phosphorylated serine473 antibody, 30 minutes of insulin stimulation [2]: degree of the phosphorylation acceleration was weakened in the cells infected with the AKBP2 virus than in the control virus-infected cells | phosphorylation of the 473rd serine of immunoprecipitated Akt2, western blotting with anti-phosphorylated serine473 antibody, no stimulation [2]: the phosphorylated state at the time of no stimulation was reduced in the cells infected with the AKBP2 virus in comparison with the control virus-infected cells

binding result [3]: binds
B3: human Akt2 fused to the GAL4 DNA binding region (expressed from pDB-Akt2 in yeast MaV203) (other, UniProt P31751 1-481, looked up)
chain: B2 chain with G114A, A119P, S133T, M135E, N141S, D250E, G374S, D460G, P461L
notes: mature; Bait of the yeast two hybrid screen; also called Akt2 (PKBβ); not shown: limits and junction residues not pri
